# Laboratory results from patent US20230287598A1 (TAURUS BIOSCIENCES, published 2023).
# Where a chain is given by its changes, count along the chain named. In names and notes the source's numbering stands.
# T1: CXCR1 (UniProt P25024 1-350, limits assumed)
# T1 construct: whole, on cells; DiscoveRx PathHunter cell line; any reporter tag on the receptor is not described; also called CXCR1 receptor; CXCR1-U2OS
# T1 sequence (looked up): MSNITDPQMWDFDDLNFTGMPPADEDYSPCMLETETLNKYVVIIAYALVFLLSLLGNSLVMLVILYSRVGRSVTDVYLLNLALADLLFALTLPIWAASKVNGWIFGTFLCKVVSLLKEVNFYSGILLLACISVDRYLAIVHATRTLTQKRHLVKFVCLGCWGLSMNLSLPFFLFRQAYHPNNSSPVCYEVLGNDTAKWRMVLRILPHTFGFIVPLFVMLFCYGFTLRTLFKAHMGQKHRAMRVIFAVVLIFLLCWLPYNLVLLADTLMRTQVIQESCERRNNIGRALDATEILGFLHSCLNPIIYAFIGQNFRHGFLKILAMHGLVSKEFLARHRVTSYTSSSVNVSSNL
# B1: VH4-34+CDR3-IL8_Q5RQ6E / VL1-51 S2A, T5N, P8S, A12G, A13S, P14L, K46R, L47T, D51G, N52D, N53T IgG (antibody)
# VH: QVQLREWGAGLLKPSETLSLTCAVYGGSFSGYYWSWIRQPPGKGLEWIGEINHSGSTNYNPSLKSRVTISVDTSKNQFSLKLSSVTAADTAVYYCTSVHQETKKYQSPRSAKELRCQCIKTYSKPFHPKFIKELRVIESGPHCANTEIIVKLSDGRELCLDPKENWVQRVVEKFLKRAENSGSGSYTYNYEWHVDVWGQGLLVTVSS
# light: QAVLNQPSSVSGSLGQKVTISCSGSSSNIGNNYVSWYQQLPGTAPRTLIYGDTKRPSGIPDRFSGSKSGTSATLGITGLQTGDEADYYCASAEDSSSNAVFGSGTTLTVLGQPKAAPSVTLFPPSSEELQANKATLVCLISDFYPGAVTVAWKADSSPVKAGVETTTPSKQSNNKYAASSYLSLTPEQWKSHRSYSCQVTHEGSTVEKTVAPTECS
# notes: nt HC 490, LC 486
# B2: VH4-34+CDR3-IL8_CDR2-Cow_Q5RQ6E / VL1-51 S2A, T5N, P8S, A12G, A13S, P14L, K46R, L47T, D51G, N52D, N53T, K54S, P56A IgG (antibody)
# VH: B1 VH with I48L, E50S, N52D, H53T, S54G, S56N, N58G
# light: B1 light with K54S, P56A
# B3: VH4-34+CDR3-IL8_CDR1-G31DY32K_CDR2-E50S_Q5RQ6E / VL1-51 I29V, N32G, K46R, L47T, D51G, N52D, N53T IgG (antibody)
# VH: B1 VH with G31D, Y32K, E50S
# light: B1 light with A2S, N5T, S8P, G12A, S13A, L14P, I29V, N32G
# B4: VH4-34+CDR3-IL8_CDR1-Cow_CDR2-Cow_Q5RQ6E / VL1-51 I29V, N32G, K46R, L47T, D51G, N52D, N53T IgG (antibody)
# VH: QVQLREWGAGLLKPSETLSLTCTASGFSLSDKAVGWIRQPPGKGLEWLGSIDTGGNTGYNPSLKSRVTISVDTSKNQFSLKLSSVTAADTAVYYCTSVHQETKKYQSPRSAKELRCQCIKTYSKPFHPKFIKELRVIESGPHCANTEIIVKLSDGRELCLDPKENWVQRVVEKFLKRAENSGSGSYTYNYEWHVDVWGQGLLVTVSS
# light: B1 light with A2S, N5T, S8P, G12A, S13A, L14P, I29V, N32G
# B5: VH4-34+CDR3-IL8_CDR1 Cow_CDR2 E50S / VL1-51 S2A, T5N, P8S, A12G, A13S, P14L, D51G, N52D, N53T IgG (antibody)
# VH: QVQLQQWGAGLLKPSETLSLTCTASGFSLSDKAVGWIRQPPGKGLEWIGSINHSGSTNYNPSLKSRVTISVDTSKNQFSLKLSSVTAADTAVYYCTSVHQETKKYQSPRSAKELRCQCIKTYSKPFHPKFIKELRVIESGPHCANTEIIVKLSDGRELCLDPKENWVQRVVEKFLKRAENSGSGSYTYNYEWHVDVWGQGLLVTVSSAS
# light: B1 light with R46K, T47L
# B6: VH4-34+CDR3-IL8 / VL1-51 S2A, T5N, P8S, A12G, A13S, P14L, D51G, N52D, N53T IgG (antibody)
# VH: QVQLQQWGAGLLKPSETLSLTCAVYGGSFSGYYWSWIRQPPGKGLEWIGEINHSGSTNYNPSLKSRVTISVDTSKNQFSLKLSSVTAADTAVYYCTSVHQETKKYQSPRSAKELRCQCIKTYSKPFHPKFIKELRVIESGPHCANTEIIVKLSDGRELCLDPKENWVQRVVEKFLKRAENSGSGSYTYNYEWHVDVWGQGLLVTVSSAS
# light: B1 light with R46K, T47L
# notes: nt HC 430, LC 444
# B7: VH4-34+CDR3-IL8_CDR1 Cow / VL1-51 S2A, T5N, P8S, A12G, A13S, P14L, D51G, N52D, N53T IgG (antibody)
# VH: B5 VH with S50E
# light: B1 light with R46K, T47L
# B8: VH4-34+CDR3-IL8_CDR1 Cow / VL1-51 S2A, T5N, P8S, A12G, A13S, P14L, K46R, L47T, D51G, N52D, N53T IgG (antibody)
# VH: B5 VH with S50E
# light: B1 light
# B9: VH4-34+CDR3-IL8_CDR1 Cow_CDR2 Cow / VL1-51 S2A, T5N, P8S, A12G, A13S, P14L, D51G, N52D, N53T IgG (antibody)
# VH: B5 VH with I48L, N52D, H53T, S54G, S56N, N58G
# light: B1 light with R46K, T47L
# B10: VH4-34+CDR3-IL8_CDR1 Cow_CDR2 E50S / VL1-51 S2A, T5N, P8S, A12G, A13S, P14L IgG (antibody)
# VH: B5 VH
# light: B1 light with R46K, T47L, G51D, D52N, T53N
# B11: VH4-34+CDR3-IL8_CDR1 Cow_CDR2 E50S / VL1-51 S2A, T5N, P8S, A12G, A13S, P14L, K46R, L47T, D51G, N52D, N53T IgG (antibody)
# VH: B5 VH
# light: B1 light
# B12: VH4-34+CDR3-IL8_CDR1 G31D,Y32K / VL1-51 S2A, T5N, P8S, A12G, A13S, P14L IgG (antibody)
# VH: B6 VH with G31D, Y32K
# light: B1 light with R46K, T47L, G51D, D52N, T53N
# B13: VH4-34+CDR3-IL8_CDR1 G31D,Y32K / VL1-51 S2A, T5N, P8S, A12G, A13S, P14L, K46R, L47T, D51G, N52D, N53T IgG (antibody)
# VH: B6 VH with G31D, Y32K
# light: B1 light
# notes: nt HC 434, LC 486
# B14: VH4-34+CDR3-IL8_CDR1 G31D,Y32K_CDR2 E50S / VL1-51 S2A, T5N, P8S, A12G, A13S, P14L IgG (antibody)
# VH: B6 VH with G31D, Y32K, E50S
# light: B1 light with R46K, T47L, G51D, D52N, T53N
# B15: VH4-34+CDR3-IL8_CDR1 G31D,Y32K_CDR2 E50S / VL1-51 S2A, T5N, P8S, A12G, A13S, P14L, D51G, N52D, N53T IgG (antibody)
# VH: B6 VH with G31D, Y32K, E50S
# light: B1 light with R46K, T47L
# B16: VH4-34+CDR3-IL8_CDR1-Cow / VL1-51 S2A, T5N, P8S, A12G, A13S, P14L IgG (antibody)
# VH: B5 VH with S50E
# light: B1 light with R46K, T47L, G51D, D52N, T53N
# notes: also called BID 34
# B17: VH4-34+CDR3-IL8_CDR1-Cow_CDR2-Cow / VL1-51 S2A, T5N, P8S, A12G, A13S, P14L IgG (antibody)
# VH: B5 VH with I48L, N52D, H53T, S54G, S56N, N58G
# light: B1 light with R46K, T47L, G51D, D52N, T53N
# notes: also called BID 36; VH4-34 MutB IL-8 CDR1cow CDR2cow
# Molecular target: T1, CXCR1
# Assay: flow cytometry, supernatant at 5 nM IgG
row,Binder,Specific Binding (CXCR1-Cell median AFU / Parental Cell median AFU)
1,B1,10
2,B2,1
3,B3,1
4,B4,1

# Molecular target: T1, CXCR1
# Assay: flow cytometry, supernatant at 5 nM IgG
# Remark: another data set of the same source
row,Binder,Specific Binding (CXCR1-Cell median AFU / Parental Cell median AFU)
1,B5,6
2,B6,3
3,B7,4
4,B8,10
5,B9,10
6,B10,5
7,B11,6
8,B12,4
9,B13,15
10,B14,5
11,B15,17
12,B16,4
13,B17,11
